In patent US5928931A, “Isolation, purification and cloning of retinol dehydratase” (Cornell Research Foundation, Inc., priority 1997, dated 1999):

Tests used:
[1] = substrate: Nc1ncnc2c1ncn2[C@@H]1O[C@H](COP(=O)(O)OS(=O)(=O)O)[C@@H](OP(=O)(O)O)[C@H]1O; experiment: purified protein, by the assay type; settings: other: purified recombinant retinol dehydratase, [3H]-retinol assay, n=3; 24.0 °C
[2] = substrate: CC1=C(/C=C/C(C)=C/C=C/C(C)=C/CO)C(C)(C)CCC1; experiment: Retinol dehydratase assay ([3H]-retinol to [3H]-AR, HPLC radiomatic detection); kinetic studies; format: biochemical, Spodoptera frugiperda; settings: 24.0 °C
Description: 20-50 μl aliquots of supernatant/column fractions were incubated with 1 μCi of [^3 H]-retinol and 20 μl of high speed supernatant from sonicated Sf-9 cells in 200 μl assay buffer (20 mM Tris.Cl pH 7.5, 150 mM NaCl, I mM MgCI2) for 15-60 minutes at 24° C. […] Samples were delipidated and [^3 H]-AR production quantified by a liquid scintillation radiomatic detector in series with HPLC gradient elution (20 mM Tris pH 7.4/methanol/chloroform) from a C-18 Reverse Phase 201TP54 column (Vydac, Separations Group, Hesperia, Calif.) as described by McClean et al., Clin. Chem., 28:693-96 (1982) and Derguini et al., Angew.
Kinetic studies were performed with native retinol dehydratase (0.1 μg/assay) and ^3 H-retinol in the presence of constant substrate carrier protein concentrations, either delipidated BSA or recombinant cellular retinol binding protein ("CRBP"). The initial rate of AR synthesis at different substrate concentrations was determined by radiomatic detection of ^3 H-AR after HPLC separation. […] Conversion of ^3 H-retinol was less than 10% of the total at the end point of each assay.
Carrier protein for retinol (delipidated bovine serum albumin or recombinant human CRBP) was added to reduce nonspecific binding and micelle formation.

B1: retinol dehydratase (Spodoptera frugiperda) (protein)
chain: MEKQQDLPFPYEFRELNPEEDKLVKANLGAFPTTYVKLGPKGYMVYRPYLKDAANIYNMPLRPTDVFVASYQRSGTTMTQELVWLIENDLNFEAAKTYMSLRYIYLDGFMIYDPEKQEEYNDILPNPENLDMERYLGLLEYFSRPGSSLLAAVPPTEKRFVKTHLPLSLMPPNMLDTVKMVYLARDPRDVAVSSFHHARLLYLLNKQSNFKDFWEMFHRGLYTLTPYFEHVKEAWAKRHDPNMLFLFYEDYLKDLPGCIARIADFLGKKLSEEQIQRLCEHLNFEKFKNNGAVNMEDYREIGILADGEHFIRKGKAGCWRDYFDEEMTKQAEKWIKDNLKDTDLRYPNMEL
[1]
  Km: 0.26 ± 0.05 µM
[2]; other: BSA carrier, second condition as printed
  Km: 0.05 µM
[2]; other: n=5, free retinol from carrier protein affinities
  Km: 0.001 µM
[2]; other: native retinol dehydratase 0.1 μg/assay, 3H-retinol, carrier BSA or CRBP, free retinol, representative experiment, non-linear regression
  Km: 0.00066 µM
[2]; other: with 2×10^-7 M CRBP-1
  Km: 0.025 µM
[2]; other: with 10^-3 M BSA
  Km: 0.4 µM
